Measured values taken from patent publication US8809287B2, “Compositions and methods for altering Wnt autocrine signaling” (Icahn School of Medicine at Mount Sinai, priority 2004, dated 2014).

Assays:
MYC = assay: Northern blot of Myc in HCT116 clone; format: cell-based, human; settings: HCT116 wild type allele-containing clone
Description: We next assessed the effects of FRP1 inhibition on the expression of Id2, Cyclin D1 and Myc, known targets of Wnt/β-catenin in colorectal cancer (Rockman et al. (2001) J. Biol. Chem. 276:45113-45119; Tetsu and McCormick (1999) Nature 398:422-426; He et al. (1998) Science 281:1509-1512). RNAs were extracted from HCT116 parental cells, and either wild type or mutant β-catenin allele containing clones transfected with either vector control or FRP1-HA using Triazol (Invitrogen). The RNAs were separated by (1%) agarose gel electrophoresis and transferred to a nylon membrane (Hybond®, Pharmacia). Probes were labeled by the Random Prime Labelling System method (Amersham Biosciences), and hybridization was performed overnight utilizing the Hybrisol I solution (Serologicals Corporation) according to the manufacturer's instructions. Normalization was performed utilizing a commercial human GADPH control probe (BD Biosciences Clontech).

uncomplexed β-catenin = assay: GST-E-cadherin binding assay / immunoblot, NIH3T3 cells expressing β-catenin under Tet promoter; format: cell-based, mouse; settings: β-catenin under tet regulatable promoter, purified DKK1 (10 nM)
Experimental: β-catenin levels were assessed using the GST-E-cadherin binding assay, which has been previously described (Bafico et al., (1998) Oncogene 16:2819-2825). Briefly, bacterially expressed GST-E-cadherin was purified with glutathione-Sepharose beads and incubated with 1 mg of each cell lysate. The GST-E-cadherin/[…]-catenin complex bound to the beads was recovered by centrifugation and analyzed by SDS-PAGE followed by immunoblotting. The uncomplexed β-catenin was detected using a monoclonal antibody to β-catenin (Transduction Laboratories). Unphosphorylated β-catenin was detected with a monoclonal antibody specific for β-catenin dephosphorylated at residues 27-37 (Alexis, Läufelfingen, Switzerland). FRP1-HA and DKK1-HA were detected with an anti-HA monoclonal antibody (Hybridoma Center, Mount Sinai School of Medicine, New York). […]

Row | Molecule | expression of Myc (MYC) | uncomplexed β-catenin induced by exogenous β-catenin (uncomplexed β-catenin)
1 | FRP1: human secreted Frizzled Related Protein 1, Wnt antagonist; expressed from pBabe-derived retrovirus with carboxy-terminal HA tag (protein, UniProt Q8N474 32-314, looked up, C-terminal HA tag, human secreted Frizzled Related Protein 1, Wnt antagonist; expressed from pBabe-derived retrovirus with carboxy-terminal HA tag) Secreted frizzled-related …: SEYDYVSFQSDIGPYQSGRFYTKPPQCVDIPADLRLCHNVGYKKMVLPNLLEHETMAEVKQQASSWVPLLNKNCHAGTQVFLCSLFAPVCLDRPIYPCRWLCEAVRDSCEPVMQFFGFYWPEMLKCDKFPEGDVCIAMTPPNATEASKPQGTTVCPPCDNELKSEAIIEHLCASEFALRMKIKEVKKENGDKKIVPKKKKPLKLGPIKKKDLKKLVLYLKNGADCPCHQLDNLSHHFLIMGRKVKSQYLLTAIHKWDKKNKEFKNFMKKMKNHECPTFQSVFK | dramatically inhibited | –
2 | DKK1: Dickkopf-1, secreted Wnt antagonist protein that binds Wnt co-receptor LRP6; used purified, in conditioned media or retrovirally expressed with HA tag (protein, UniProt O94907 32-266, looked up, HA tag in some uses) Dickkopf-related protein 1: TLNSVLNSNAIKNLPPPLGGAAGHPGSAVSAAPGILYPGGNKYQTIDNYQPYPCAEDEECGTDEYCASPTRGGDAGVQICLACRKRRKRCMRHAMCCPGNYCKNGICVSSDQNHFRGEIEETITESFGNDHSTLDGYSRRTTLSSKMYHTKGQEGSVCLRSSDCASGLCCARHFWSKICKPVLKEGQVCTKHRRKGSHGLEIFQRCYCGEGLSCRIQKDHHQASNSSRLHTCQRH | – | no effect
